Data published in patent US20240287172A1 (SCIRHOM, published 2024).

Target: T1, hiR2-FL-L589P-T7 (human, UniProt Q6PJF5 1-856)
T1 sequence: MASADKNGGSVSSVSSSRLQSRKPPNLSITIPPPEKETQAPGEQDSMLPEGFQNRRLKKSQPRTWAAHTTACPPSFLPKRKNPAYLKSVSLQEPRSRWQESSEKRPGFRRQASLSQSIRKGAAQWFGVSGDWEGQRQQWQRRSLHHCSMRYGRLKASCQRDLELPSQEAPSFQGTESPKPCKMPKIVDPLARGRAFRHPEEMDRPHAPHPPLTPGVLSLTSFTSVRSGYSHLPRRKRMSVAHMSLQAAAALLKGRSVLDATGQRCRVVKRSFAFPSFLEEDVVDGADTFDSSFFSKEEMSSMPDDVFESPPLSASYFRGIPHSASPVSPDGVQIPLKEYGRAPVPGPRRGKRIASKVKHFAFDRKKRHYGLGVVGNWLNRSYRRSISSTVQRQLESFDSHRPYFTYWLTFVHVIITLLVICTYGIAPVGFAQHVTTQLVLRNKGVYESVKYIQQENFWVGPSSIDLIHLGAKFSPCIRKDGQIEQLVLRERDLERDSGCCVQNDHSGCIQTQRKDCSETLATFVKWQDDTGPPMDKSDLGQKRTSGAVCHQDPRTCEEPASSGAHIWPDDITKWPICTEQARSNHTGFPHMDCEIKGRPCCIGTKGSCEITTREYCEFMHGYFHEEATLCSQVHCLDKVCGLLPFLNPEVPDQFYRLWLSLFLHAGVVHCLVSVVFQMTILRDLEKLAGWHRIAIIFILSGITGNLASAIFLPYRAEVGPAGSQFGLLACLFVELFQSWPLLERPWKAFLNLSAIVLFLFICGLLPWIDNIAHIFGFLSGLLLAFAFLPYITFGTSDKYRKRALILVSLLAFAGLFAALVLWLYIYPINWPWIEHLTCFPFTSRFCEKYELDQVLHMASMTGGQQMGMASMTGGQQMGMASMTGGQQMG
Experiment: FACS, MEF-DKO cells, 3 µg/ml
How it was run: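 MEF-DKO cells expressing T7-tagged full-length hiR2 point mutants were stained on ice for 1 h with purified antibodies at 3 μg/ml in FACS buffer. Detection used PE-conjugated goat anti-mouse IgG F(ab′)2 (1:100, 1 h on ice), read by flow cytometry; buffer-only wells served as controls.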

B1: antibody 48 (antibody, V domains shown)
VH: QVQLQQSGTELVRPGTSVKVSCKASGYAFTNYLIEWVKQRPGQGLEWIGVINPGSGFTKYNEKFKGKATLTADKSSSTVYMHLSSLTSEDSAVYFCARGLYRAMDYWGQGTSVTVSS
VL: DIQMTQSPASQSASLGESVTITCLASQTIATWLAWYQQKPGKSPQLLIYGATTLADGVPSRFSGGGSGTKFSFKISSLQAEDFVSYYCQQLYSTPYTFGGGTKLEIK
notes: mouse IgG, kappa light chain; also called clone #48; purified antibody 48
- loss of binding vs wild type: ≥ 60%

B2: antibody 50 (antibody, V domains shown)
VH: QVQLQQSGAELVRPGASVKVSCKASGYAFSNYLIEWVKQRPGQGLEWIGVINPGSGFTKYNEKFKGKATLTADKSSSTAYMQLSSLTSEDSAVYFCARGLYRAMDYWGQGTSVTVSS
VL: DIQMTQSPASQSASLGESVTITCLASQTIGTWLAWYQQKPGKSPQLLIYAAASLADGVPSRFSGGGSGTKFSFKISSLQAEDFVNYYCQQIYSTPYTFGGGTKLEIK
notes: mouse IgG, kappa light chain; also called clone #50; purified antibody 50
- loss of binding vs wild type: ≥ 95%
